Experimental data as given in US20230233512A1 (UNIVERSITY OF SOUTH CAROLINA, published 2023).
One block for each binder: values may come before it.

B3: PACT C213F (recessive DYT16 mutant) (other, UniProt O75569 1-313, looked up)
chain: MSQSRHRAEAPPLEREDSGTFSLGKMITAKPGKTPIQVLHEYGMKTKNIPVYECERSDVQIHVPTFTFRVTVGDITCTGEGTSKKLAKHRAAEAAINILKANASICFAVPDPLMPDPSKQPKNQLNPIGSLQELAIHHGWRLPEYTLSQEGGPAHKREYTTICRLESFMETGKGASKKQAKRNAAEKFLAKFSNISPENHISLTNVVGHSLGFTWHSLRNSPGEKINLLKRSLLSIPNTDYIQLLSEIAKEQGFNITYLDIDELSANGQYQCLAELSTSPITVCHGSGISCGNAQSDAAHNALQYLKIIAERK
notes: N-terminal Myc or FLAG tag in co-IP; GAL4-DBD or VP16-AD fusion in mammalian two-hybrid; histidine tag in PKR activity assay
B4: PACT C77S (recessive DYT16 mutant) (other, UniProt O75569 1-313, looked up)
chain: MSQSRHRAEAPPLEREDSGTFSLGKMITAKPGKTPIQVLHEYGMKTKNIPVYECERSDVQIHVPTFTFRVTVGDITSTGEGTSKKLAKHRAAEAAINILKANASICFAVPDPLMPDPSKQPKNQLNPIGSLQELAIHHGWRLPEYTLSQEGGPAHKREYTTICRLESFMETGKGASKKQAKRNAAEKFLAKFSNISPENHISLTNVVGHSLGCTWHSLRNSPGEKINLLKRSLLSIPNTDYIQLLSEIAKEQGFNITYLDIDELSANGQYQCLAELSTSPITVCHGSGISCGNAQSDAAHNALQYLKIIAERK
notes: as for B3

Experiments:
[1] = biological target: T1, PACT C213F (recessive DYT16 mutant), O75569
T1 chain: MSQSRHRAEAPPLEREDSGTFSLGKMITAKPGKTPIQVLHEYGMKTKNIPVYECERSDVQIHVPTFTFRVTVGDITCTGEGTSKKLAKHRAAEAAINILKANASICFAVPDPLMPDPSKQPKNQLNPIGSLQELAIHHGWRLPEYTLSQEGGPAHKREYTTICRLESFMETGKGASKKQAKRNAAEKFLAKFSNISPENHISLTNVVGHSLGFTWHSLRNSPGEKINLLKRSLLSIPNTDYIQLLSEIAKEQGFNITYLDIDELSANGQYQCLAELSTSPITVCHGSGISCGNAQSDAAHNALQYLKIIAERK

[2] = biological target: T2, PACT C213R (recessive DYT16 mutant), O75569
T2 chain: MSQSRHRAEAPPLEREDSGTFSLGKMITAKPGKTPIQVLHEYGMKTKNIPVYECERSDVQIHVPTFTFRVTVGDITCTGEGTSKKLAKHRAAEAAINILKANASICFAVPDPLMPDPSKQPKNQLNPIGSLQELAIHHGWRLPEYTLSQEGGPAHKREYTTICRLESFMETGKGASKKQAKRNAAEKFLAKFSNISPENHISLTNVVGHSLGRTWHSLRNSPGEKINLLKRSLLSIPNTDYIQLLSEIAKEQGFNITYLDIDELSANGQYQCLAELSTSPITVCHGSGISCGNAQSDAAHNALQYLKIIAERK

[3] = biological target: T3, PACT C77S (recessive DYT16 mutant), O75569
T3 chain: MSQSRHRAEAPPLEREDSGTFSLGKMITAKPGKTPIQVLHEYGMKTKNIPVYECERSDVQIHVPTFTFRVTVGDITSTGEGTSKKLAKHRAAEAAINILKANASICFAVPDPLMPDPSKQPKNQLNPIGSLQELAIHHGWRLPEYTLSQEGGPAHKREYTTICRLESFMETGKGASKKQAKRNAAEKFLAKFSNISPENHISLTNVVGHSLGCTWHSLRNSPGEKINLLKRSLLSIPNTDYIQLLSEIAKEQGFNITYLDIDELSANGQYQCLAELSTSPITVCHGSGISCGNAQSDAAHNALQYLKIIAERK

[4] = biological target: T4, PACT N102S (dominant DYT16 mutant), O75569
T4 chain: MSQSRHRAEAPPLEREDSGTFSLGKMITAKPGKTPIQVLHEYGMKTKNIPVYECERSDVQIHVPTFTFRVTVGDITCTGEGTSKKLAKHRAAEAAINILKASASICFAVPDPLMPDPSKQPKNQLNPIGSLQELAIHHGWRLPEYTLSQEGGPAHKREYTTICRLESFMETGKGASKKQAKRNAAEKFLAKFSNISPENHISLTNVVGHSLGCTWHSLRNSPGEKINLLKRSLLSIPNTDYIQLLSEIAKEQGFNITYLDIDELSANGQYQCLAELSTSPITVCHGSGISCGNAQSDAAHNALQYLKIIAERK

[5] = biological target: T5, PACT P222L (recessive DYT16 mutant), O75569
T5 chain: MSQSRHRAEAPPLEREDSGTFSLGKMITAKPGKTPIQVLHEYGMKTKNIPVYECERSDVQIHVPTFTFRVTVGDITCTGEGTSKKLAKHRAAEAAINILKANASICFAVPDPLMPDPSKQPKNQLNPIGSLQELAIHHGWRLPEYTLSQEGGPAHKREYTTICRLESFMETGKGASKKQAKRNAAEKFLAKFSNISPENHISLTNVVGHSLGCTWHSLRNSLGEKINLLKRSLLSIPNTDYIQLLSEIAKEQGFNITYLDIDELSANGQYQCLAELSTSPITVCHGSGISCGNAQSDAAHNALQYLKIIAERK

[6] = biological target: T6, PACT T34S (dominant DYT16 mutant), O75569
T6 chain: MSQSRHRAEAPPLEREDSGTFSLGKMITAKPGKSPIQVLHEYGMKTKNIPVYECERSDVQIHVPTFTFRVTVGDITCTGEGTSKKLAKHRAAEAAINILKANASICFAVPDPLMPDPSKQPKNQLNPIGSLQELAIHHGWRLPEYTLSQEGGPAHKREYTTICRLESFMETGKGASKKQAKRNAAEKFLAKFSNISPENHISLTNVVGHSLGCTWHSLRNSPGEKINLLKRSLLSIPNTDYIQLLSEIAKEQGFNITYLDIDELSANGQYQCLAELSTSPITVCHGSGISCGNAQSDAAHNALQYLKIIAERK

[7] = biological target: T7, wild type (wt) PACT, O75569
T7 chain: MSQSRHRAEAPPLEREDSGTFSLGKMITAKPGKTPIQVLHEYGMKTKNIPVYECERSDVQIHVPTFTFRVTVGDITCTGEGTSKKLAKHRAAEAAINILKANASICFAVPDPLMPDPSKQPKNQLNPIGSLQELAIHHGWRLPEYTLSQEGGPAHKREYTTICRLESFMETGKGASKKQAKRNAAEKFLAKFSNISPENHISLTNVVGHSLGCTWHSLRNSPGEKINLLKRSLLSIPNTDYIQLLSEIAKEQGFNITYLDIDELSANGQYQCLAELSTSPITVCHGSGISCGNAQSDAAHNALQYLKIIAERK

[8] = biological target: T8, flag-tagged dominant negative PKR mutant, K296R (UniProt P19525 1-551); experiment: co-IP in HeLa cells: Myc-PACT on Myc-agarose, flag-PKR K296R detected by anti-flag blot
T8 construct: Used in the co-IP assays in HeLa cells; also called flag-PKR; flag-tagged K296R
Description: (§1) In all cases HeLa M cells were seeded at 20% confluency in 6-well dishes 24 hours prior to co-transfecting 250 ng of each flag- and/or Myc-tagged constructs using Effectene® reagent (Qiagen). Cells were harvested 24 hours post transfection and harvested in IP buffer. Whole cell extract was then immunoprecipitated overnight at 4° C. on a rotating wheel with either flag-agarose (Sigma) or Myc-agarose beads (Thermo Scientific). Immunoprecipitates were then washed 3-5 times in IP buffer followed by resuspension and boiling for 5 minutes in 1×Laemmle buffer. Samples were then resolved on 10% SDS-PAGE denaturing gels and transferred to PVDF membranes. […] The cell lysates were immunoprecipitated in 15 μL of Myc-agarose beads and resolved on 10% SDS-PAGE denaturing gels and transferred to PVDF membranes.
The immunoprecipitates were analyzed by western blot analysis with anti-flag (FIG. 4A) or anti-Myc (FIG. 4B) antibodies (co-IP panel) and with anti-Myc (FIG. 4A) or anti-flag (B) for IP panels.

[9] = biological target: B4; experiment: mammalian two-hybrid, luciferase reporter; PACT proteins as GAL4-DBD bait and VP16-AD prey
[10] = biological target: B3; experiment: co-IP in HeLa cells: flag-PACT on flag-agarose, Myc-PACT detected by anti-Myc blot
Description: as §1

B1: PKR (protein)
chain: MAGDLSAGFFMEELNTYRQKQGVVLKYQELPNSGPPHDRRFTFQVIIDGREFPEGEGRSKKEAKNAAAKLAVEILNKEKKAVSPLLLTTTNSSEGLSMGNYIGLINRIAQKKRLTVNYEQCASGVHGPEGFHYKCKMGQKEYSIGTGSTKQEAKQLAAKLAYLQILSEETSVKSDYLSSGSFATTCESQSNSLVTSTLASESSSEGDFSADTSEINSNSDSLNSSSLLMNGLRNNQRKAKRSLAPRFDLPDMKETKYTVDKRFGMDFKEIELIGSGGFGQVFKAKHRIDGKTYVIKRVKYNNEKAEREVKALAKLDHVNIVHYNGCWDGFDYDPETSDDSLESSDYDPENSKNSSRSKTKCLFIQMEFCDKGTLEQWIEKRRGEKLDKVLALELFEQITKGVDYIHSKKLIHRDLKPSNIFLVDTKQVKIGDFGLVTSLKNDGKRTRSKGTLRYMSPEQISSQDYGKEVDLYALGLILAELLHVCDTAFETSKFFTDLRDGIISDIFDKKEKTLLQKLLSKKPEDRPNTSEILRTLTVWKKSPEKNERHTC
- PKR autophosphorylation, in vitro PKR kinase activity assay [1]: In all cases, recessive mutations demonstrated a slightly increased capacity to activate PKR ... as compared to wt PACT
- PKR autophosphorylation, in vitro PKR kinase activity assay [2]: In all cases, recessive mutations demonstrated a slightly increased capacity to activate PKR ... as compared to wt PACT
- PKR autophosphorylation, in vitro PKR kinase activity assay [3]: In all cases, recessive mutations demonstrated a slightly increased capacity to activate PKR ... as compared to wt PACT
- PKR autophosphorylation, in vitro PKR kinase activity assay [4]: The dominant mutants (lower panel) also showed enhanced ability to activate PKR at 400 µg
- PKR autophosphorylation, in vitro PKR kinase activity assay [5]: In all cases, recessive mutations demonstrated a slightly increased capacity to activate PKR ... as compared to wt PACT
- PKR autophosphorylation, in vitro PKR kinase activity assay [6]: The dominant mutants (lower panel) also showed enhanced ability to activate PKR at 400 µg
- PKR autophosphorylation, in vitro PKR kinase activity assay [7]: When the purified recombinant PACT proteins were added, a dose dependent increase (left: 400 µg, right: 4.0 ng) in activated autophosphorylated PKR was observed

- binding result [8]: binds
B2: wild type (wt) PACT (other, UniProt O75569 1-313, looked up)
chain: MSQSRHRAEAPPLEREDSGTFSLGKMITAKPGKTPIQVLHEYGMKTKNIPVYECERSDVQIHVPTFTFRVTVGDITCTGEGTSKKLAKHRAAEAAINILKANASICFAVPDPLMPDPSKQPKNQLNPIGSLQELAIHHGWRLPEYTLSQEGGPAHKREYTTICRLESFMETGKGASKKQAKRNAAEKFLAKFSNISPENHISLTNVVGHSLGCTWHSLRNSPGEKINLLKRSLLSIPNTDYIQLLSEIAKEQGFNITYLDIDELSANGQYQCLAELSTSPITVCHGSGISCGNAQSDAAHNALQYLKIIAERK
notes: also called Myc-PACT; flag-PACT

Binder: B3
- binding result [8]: binds
- fold higher interaction than wt PACT-wt PACT [9]: ~9 fold

Binder: B4
- binding result [10]: binds
- binding result [8]: binds

- binding result [8]: binds
B5: PACT C213R (recessive DYT16 mutant) (other, UniProt O75569 1-313, looked up)
chain: MSQSRHRAEAPPLEREDSGTFSLGKMITAKPGKTPIQVLHEYGMKTKNIPVYECERSDVQIHVPTFTFRVTVGDITCTGEGTSKKLAKHRAAEAAINILKANASICFAVPDPLMPDPSKQPKNQLNPIGSLQELAIHHGWRLPEYTLSQEGGPAHKREYTTICRLESFMETGKGASKKQAKRNAAEKFLAKFSNISPENHISLTNVVGHSLGRTWHSLRNSPGEKINLLKRSLLSIPNTDYIQLLSEIAKEQGFNITYLDIDELSANGQYQCLAELSTSPITVCHGSGISCGNAQSDAAHNALQYLKIIAERK
notes: as for B3
